We go through two proteins from publication PMC6757106, “Prokaryotic soluble overexpression and purification of oncostatin M using a fusion approach and genetically engineered E. coli strains” (Scientific Reports, 2019).

Data set [1] concerns the molecule itself. The experiment in a line: non-reducing SDS-PAGE; final purified tag-free OSM run on 10% tricine SDS-PAGE under reducing and non-reducing conditions, Coomassie stained.
Data set [2] deals with the molecule itself. Briefly: SEC; HiLoad 16/600 Superdex 75 pg, 1x PBS pH 7.4, 1 mL/min; final proteins after tag cleavage.

B1: Human Oncostatin M (OSM), tag-free, purified from the MBP-OSM fusion expressed in BL21(DE3) (ligand, UniProt P13725 26-221, looked up)
chain: AAIGSCSKEYRVLLGQLQKQTDLMQDTSRLLDPYIRIQGLDVPKLREHCRERPGAFPSEETLRGLGRRGFLQTLNATLGCVLHRLADLEQRLPKAQDLERSGLNIEDLEKLQMARPNILGLRNNIYCMAQLLDNSDTAEPTKAGRGASQPPTPTPASDAFQRKLEGCRFLHGYHRFMHSVGRVFSKWGESPNRSRR
notes: Oncostatin M, human; Tag removed with TEV protease at ENLYFQ/G; surmised); Printed size 22.05 kDa; also called MBP fusion-derived OSM; OSM purified from MBP-OSM; source: E. coli BL21(DE3), 18 °C, purified (IMAC, TEV protease cleavage, second IMAC); not shown: His6, N-terminal, cleaved; MBP, N-terminal, cleaved
With B1, the binding result in data set [1] is recorded as “binds”.

B2: Human Oncostatin M (OSM), tag-free, purified from the His6-OSM fusion expressed in Origami 2 (ligand, UniProt P13725 26-221, looked up)
chain: AAIGSCSKEYRVLLGQLQKQTDLMQDTSRLLDPYIRIQGLDVPKLREHCRERPGAFPSEETLRGLGRRGFLQTLNATLGCVLHRLADLEQRLPKAQDLERSGLNIEDLEKLQMARPNILGLRNNIYCMAQLLDNSDTAEPTKAGRGASQPPTPTPASDAFQRKLEGCRFLHGYHRFMHSVGRVFSKWGESPNRSRR
notes: Oncostatin M, human; Tag removed with TEV protease at ENLYFQ/G; a glycine probably stays at the N-terminus (surmised from the cysteine numbering); Printed size 22.05 kDa; also called His6 fusion-derived OSM; OSM purified from His-OSM; source: E. coli Origami 2(DE3), 18 °C, purified (IMAC with 2 M urea, TEV protease cleavage, second IMAC); not shown: His6, N-terminal, cleaved
Take B2: the binding result in data set [2] is “binds”.
